In article PMC8342987:
Read-outs that look alike come from different tables or passages of the source.

Substance	other (phosphorylation at Y525)	other (phosphorylation at Y526)	other (ubiquitination at K375)	other (ubiquitination at K517)
SYK: SYK (Y525F, Y526F)	no change	no change	–	–
SYK: SYK (K375R, K517R)	–	–	changes	changes
